The values below come from PMC10694767 (Cell Reports Medicine, 2023).

In experiment [1] the target is T1, virion-encoded gp42 expressed on the cell surface of EBV-positive CNE2 cells (Epstein-Barr virus (HHV-4); strain …).
T1 chain: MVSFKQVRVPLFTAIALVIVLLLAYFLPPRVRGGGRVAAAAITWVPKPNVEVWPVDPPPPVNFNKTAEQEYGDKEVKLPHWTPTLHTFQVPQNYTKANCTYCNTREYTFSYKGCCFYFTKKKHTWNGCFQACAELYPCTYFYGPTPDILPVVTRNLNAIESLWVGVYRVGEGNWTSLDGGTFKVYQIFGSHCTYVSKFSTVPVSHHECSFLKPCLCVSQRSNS
Nature of the experiment: flow cytometry on cells. (Flow cytometry measures light scatter and fluorescence of single cells or particles in a stream.)

The target in experiment [2] is T2, gHgL-gp42 complex (soluble gHgL with soluble gp42) (Epstein-Barr virus (HHV-4), strain M81, strain). Nature of the experiment: SPR. In general terms: In SPR one partner is held on a chip, and binding of the other changes the refractive index at the surface.
Experiment [3] deals with T3, soluble EBV gp42 (ectodomain, aa 34-223) (Epstein-Barr virus, strain M81, UniProt P03205). Put plainly: SPR.
For experiment [4], the target named is T2, gHgL-gp42 complex (soluble gHgL with …). Nature of the experiment: SEC. (Size exclusion chromatography separates by hydrodynamic size, large species first.)
Experiment [5] concerns the target T3, soluble EBV gp42 (ectodomain, aa 34-223). Nature of the experiment: cell-based or functional assay.
The target is the same in experiment [6]. Put plainly: cryo-EM structure.
The target of experiment [7] is virion-encoded gHgL expressed on the cell surface of EBV-positive CNE2 cells (Epstein-Barr virus (HHV-4), strain in …). Put plainly: flow cytometry on cells.

B1: 3E8 (anti-gp42 rabbit mAb, constant regions replaced with human IgG1) (antibody, V domains shown)
VH: QPVKESGGRLVTPGTPLTLTCTASGFSLSSYWMSWVRQARGKGLEWIGTATAGGSAWYASWAKGRFTISRTSTTVELRMTSLTTEDTATYFCARDPPGHSGLWGRGTLVTVSS
VL: DLVMTQTPASVEAAVGGTVTIKCQASESIGNALAWYQQKPGQPPKLLIYDTSNLASGVSSRFRGSGSGTQFTLTISDLECADAATYYCQTYYYSGVTTTYQAFGGGTEVDVK
As a reminder, the Kd is the equilibrium constant for the complex coming apart. Regarding B1, the binding result in experiment [1] and in experiment [2] was “binds” each time. Binding in experiment [3] was put at a Kd of 0.42 nM.

B2: 3E8 Fab (Fab, V domains shown)
VH: B1 VH
VL: B1 VL
As for B2, the binding result in experiment [4] is “binds”.

B3: 5E3 (anti-gp42 rabbit mAb, constant regions replaced with human IgG1) (antibody, V domains shown)
VH: QPVEESGGRLVTPGTPLTLTCTVSGFSLSTYAMSWVRQAPGKGLEWIGTISASDTTYFANWTKGRFTISKASTTVDLKITSPTTEDTATFFCARFSAYESNRDYFDTFDPWGPGTLVTVSS
VL: DVVMTQTPSPVSAAVGGTVTIKCQASQNIYRDLAWYQQNPGQPPKLLIYGASNLASGVPSRFSGSGSGTEYILTISDLECADAATYYCQCSAYGSGYAAHAFGGGTKVDIK
With B3, the “IC50 of neutralisation of EBV infection of Akata B cells; blocks gp42:HLA-II” value in experiment [5] worked out at 0.2 µg/mL. Moreover, the binding result in experiment [1] and in experiment [2] was “binds” throughout. The molecule also had a dissociation constant (Kd) in experiment [3] of 0.39 nM.

B4: 5E3 Fab (Fab, V domains shown)
VH: B3 VH
VL: B3 VL
For B4, the binding result in experiment [4] and in experiment [6] was “binds” throughout.

B5: 6H2 (anti-gHgL mAb, constant regions replaced with human IgG1) (antibody, V domains shown)
VH: EVKLLESGGGLVQPGGSLKLSCAASGFDFSRYWMTWVRQAPGQGLEWIGEINPDSSTINYTPSLKDKFIISRDNAKNTLYLQVSKLRSEDTALYYCARSPYYYGSSYDVWGAGTAVTVSS
VL: DIVMSQSPSSLAVSAGEKVTMNCKSSQSLLNSRTRKNYLAWYQQKPGQSPKLLIYWASTRESGVPDRFTGSGSGTDFTLTISSVQAEDLAFYYCKQSYNLPTFGGGTKLEIK
On to B5, for which the binding result in experiment [7] and in experiment [2] was “binds” each time.

B6: 6H2 Fab (Fab, V domains shown)
VH: B5 VH
VL: B5 VL
For the molecule B6, in experiment [4], the binding result is on record as “binds”.

B7: 10E4 (anti-gHgL rabbit mAb, constant regions replaced with human IgG1) (antibody, V domains shown)
VH: QQVKESGGRLVTPGTPLTLTCTASGFSLSTYWMSWVRQAPGKGLEYIGVIGGSGSTYYASWAKGRFTISKTSTTVDLKITSPTTEDTATYFCARDSGAGVRFRFWGPGTLVTVSS
VL: DLVMTQTPASVEAGVGGTVTINCQASENIGSRLAWYQQKPGQPPKLLIYRASTLESGVPSRFKGSGSGTEFTLTISDLECADAATYYCQCTYGVSITINYGNDFGGGTEVVVK
As to B7, the binding result in experiment [7] and in experiment [2] was “binds” in each case.

B8: 10E4 Fab (Fab, V domains shown)
VH: B7 VH
VL: B7 VL
With B8, the binding result in experiment [4] is recorded as “binds”.
